Data on 19 sequences can be found in a protein production outcome set (Wang et al. 2014).

The nature of the data set: label from the status in PepcDB records.
In the case of “YLDLWQTQDAKIRAKLAAVFQAEQNLNEAAIAYCLARALPEETAIFFANSMVVRYAEFFWQLNDQQILPYFNRGANGIDGTLSTALGIAENHSPAVLLTGDLALLHDINGFLTLSKFTGSLTIIVINNQGGGIFEMLPIAEEKDIFEDYFATPQTVEFSKVCDLYGIEYQAIQTKADLMQTCAILPPRGVRLLEVKTNRNQAMTWLKDLFQ”, the protein production result was “failed”.
“MSQQAARKLEKADIEAIFARSRFISAMNLEILDIDHAGSRFSVRMPLQDTYERGAPGTKQFHGGALAALIDVVGDFAIGMLVGGGVPTMNLRIDYLRPAVGDYVDGVAVVRKAGKSAAVVDIDILCPAGKLVAIGRGTYVPITG”: the protein production entry is on record as “failed”.
On to “MREIPLVSVALATYNGERYLRRQLDSVLAQTYRNIEIVVSDDCSRDGTVAILEEYRRAHGITFRVNERNLGFVRNFERALAGCRGEFIALSDQDDIWLPEKIETLVREIGPHSLIYTDALLIDGDDQPLPGSLVEVSGVRPVSGTCFEYFVCNNCVTGCTAMLRRDLLATALPIPEAETYHDWWLAVAASRRNGVVYHAAKLTEYRQHAHNYTGANVRAGLPARIAAHLMGKTAAEKRGYYELLANRARRYRAMADRLNLTPAERSFLEEIGEYAESLLSGGNRMKTFALALKYRETLFPAAGRWEKLLFVFSKLIAARAILEHHHHHH”, for which the protein production result is reported as “not failed”.
With “MPEITLNCQKLPCPQPVLRCKALLDTEAPARCTVTVDNAPASENVARFLTSRGYDTSVHADPEGLWNIIAVRKDSAVAPSCDCEVMDARGIAAIAGTAEMPQKVTVFITSETLGSGDDVLGGKLMANFLATLPELGDELWRIVCVNGGVRLATREHPAVTHLNKLEAMGVDILVCGTCLDHFGLLSEKAVGQTTNMLDVVTSLQLATKVIRPLEHHHHHH”, the protein production result is on record as “not failed”.
On to “MNEKTINEQYAYIRTLLEEKRLKEALMQLESLLWQCPDWDLRTRLEQLQTSYKYMLEYMRQGANDPERWNVYRKLIADTWEIADRSRLLMLDNASSRYYHEVRRTPRPESLSAYTLKKLLHMLESFNDDLAVSGLLSDEKMDEVLKRHEETLKYMFLQTWTNSAWTPEEEEDAQSMLTSELLPVNDLCLFISAVTLSLMECFDLRKIMWLLDAYRHPDVNAGQRALVGVIFIFHIYKNRLSLYNDLVKRVDLMDEISPFKEDVARIYHQMLLCQETEKIDKKMREEIIPEMLKNVSSMRNMRFGFEENEDENDDKNPDWADAFEQSGLGDKLREMNELQLEGADVYMSTFAALKSYPFFREVQNWFYPFSKQQSDVIKQLKQEGNEKNTLLDLILQSGFFSNSDKYSLFFTIRQLPKAQQDMMLSQLGEQQVAELTEKSSAETMKKFNERPGTVSNQYLHDLYRFFKLSVRRHEFRDIFKEKLDLHHIPALSNVLYSEDILFPIADFYLKKERWNEAIEVYEEMETIGALQERGAEYYQKLGYALQKSKKYAEAIGAYLKADTLKPDNIWNNRHLAICYRLNRNYQAALSYYKKVEEATPEDTNVIFHIGSCLAELGQYEEAANYFFKLDFIESNCIKAWRGIGWCSFISRKYEQAMKYYEKIIEQKPLAIDYMNAGHVAWTMGDIQKAAALYGKSITANGNRERFLEMFRKDEEALLKQGIQEEDIPLMLDLL”, for which the protein production result was “failed”.
Consider “MKRTLLAISIFAITCNASASSSPDAVSSMSDRYSTLANLEMNGGFPTETSQKILQNESYFQRASMLYQWALPIVNMKAMQEGHAELMNGTAYNKIAIYQDRLKPNSLITTPNSDVIYAMGWLDMKETGPLIIEHPAGLQSLMDDMYHHPLRGPLDKNQPGGQYLGDIGNAGPDKGKAAKFLILPPNKKREDYAQLADKYFIYESNTSEVFLFLRSFFKDMNNLEPAVNRVKEIKVYPLNGSAESMEFFNVSDVPSKSIWDNDYRFYETLNRAVQNMELATFDPYMNGVMAAIGISKGVEFTPTEKQKEMLTKAAQTGWKISKEIALNFDEKSSKTTGDTWFWKEAPSWVAHALTDKGNQYHALSDPYYHNIKTGYTNVDAITHMYTNHYSMSSGMINAKIGAGAKYAGAYKDKDLNPLIGSCNYSLHIPADVPASLFWSVTAYDAATAAGVNVENHQWPSLGDRDNPIKNSDDSVTLFFGPTAPENAQLAKNNWLQFDNDSWFSLIRFYGPQQSLFDGSWVPGEFEKINCVK”, for which the protein production entry was “failed”.
As to “MTVQTAIFDLIKQAKTIIIHRHQRPDPDAIGSQLGLAAIIKASFPAKRVLTPGKQYHGFDWLGQMDEVTEADYQDALVLILDTANQPRIDGELWNQGKTIVKIDHHPNDDAFGDPQWVDVDASSTSEMIYNWYAPLAAELTLTANAARLLYAGIVGDTGRFLYSATKPSTMRAAAALMEAGADAEAVNRIEDTITLPVARLSAYVYEHLTQLDSGAAYVILTNAILDSFAIGDASTAGVVPLPGRIDTVKCWAIFVQQKEGDFRIRLRSKGPSINGVAKNHDGGGHALASGAKAKDQQEIETVVRELDQVASQYEKEVLEHHHHHH”, the protein production result is “failed”.
In the case of “MKFSVIIPVYNASKFIDYCVESVLSQSYSDIEVILINDGSTDKSGEICEGFARKDNRVKVYHQENQGAAVARNHGIRKATGDYLLFPDSDDYYASSLGFEEINNQLEETKADVLIHDSFVERGNGTPDDLHSSLLREEVLKLEKIEFIEYLIKKDKLTRSAWTKVISRSFLSKNNILFPTVRQTEDTGFTAELVRLGNSFDWYEKQFYAYVKHDESVTAKRLPESIIHDSFSVIKTAVINGELIKDSRYREAYYSYLAYPYVVLIGQTKEAINRGVIKENTILNDLKQYSFLMKYNLNPKLKVIKHLYKLFGYLMIVFLLSVMMELTYRKQGV”, the protein production result is “failed”.
Regarding “MHLTKTWLAQLPLTDIQQVQPVSGGDINAAFQIITRHHQYFLKVQPHNDVTFFDHEVAGLRLLGAVTKTPRVIASGTIATDGYLLLDWLATGTGSQSALGAAVAKVHHQHHAQFGLDHDFTAGKLPKINHWQTDWATFYTQQRLDVLVNLAKEHHLWSETREMHYHRLRQQLLQDSHMHTVKPSLLHGDLWSGNYLFDTTGTPVLIDPDVFYGDREMDLAMTTIFGGFDTDFYQAYQAAYPVAPGMQDRLPSYQLYYLLAHLNLFGETYGPAVDRILMQY”, the protein production result is given as “failed”.
In the case of “MAQTQGTRRKVCYYYDGDVGNYYYGQGHPMKPHRIRMTHNLLLNYGLYRKMEIYRPHKANAEEMTKYHSDDYIKFLRSIRPDNMSEYSKQMQRFNVGEDCPVFDGLFEFCQLSTGGSVASAVKLNKQQTDIAVNWAGGLHHAKKSEASGFCYVNDIVLAILELLKYHQRVLYIDIDIHHGDGVEEAFYTTDRVMTVSFHKYGEYFPGTGDLRDIGAGKGKYYAVNYPLRDGIDDESYEAIFKPVMSKVMEMFQPSAVVLQCGSDSLSGDRLGCFNLTIKGHAKCVEFVKSFNLPMLMLGGGGYTIRNVARCWTYETAVALDTEIPNELPYNDYFEYFGPDFKLHISPSNMTNQNTNEYLEKIKQRLFENLRMLPH”, the protein production result is “failed”.
For the sequence “MEFWESSFIEKQTMWGFEPTESAILTKDFFLEKNVKNILVPGIGYGRNAKVFIDNGINVTGIEISKTAIDLARENGLEDVSMYHGSVNEMPFDNKLYDGIFSHALLHLLNEQEREKFIEDCYNQLKPGGYMVFTTVSKKAPMYGKGKQLDKDYYEIMDGVKMFFYDSESIKKDFNQYRLVQVSEIDEPNKNMANKPSINFLMIKCKKER”, the protein production result was “failed”.
For the sequence “MSLVKKSSNVIAAVVSSVRTNFAQQILDGIQEEAHKNGYNLIIVYSGSADPEEQKHALLTAIERPVMGILLLSIALTDDNLQLLQSSDVPYCFLSMGFDDDRPFISSDDEDIGYQATNLLINEGHRQIGIAGIDQYPYTGRKRLAGYKKALKEANIAINQEWIKPGDYSYTSGEQAMKAFGKNTDLTGIIAASDMTAIGILNQASSFGIEVPKDLSIVSIDGTEMCKITRPQLTSISQDFFQMGVTGVQQIHQSVKNGSNRIVSQQFIPVNPVIRKSTARLGEGHHHHHH”, the protein production result is listed as “not failed”.
The result for “MTDTLLVTSTNAGTGKTAVSLALARLAGDRDRTVGYMKPKGTRLQSNVGKTLDADPLLARDLLDLDAEIHDLEPVVYSPTFIQGAVRGREDSANLADRVRDAYDELATDRDVMLVEGAGTPTTGGIVDLTDGDIAALLDARAIVVADYTGPSDVDDVLAAADALGDRCAGVVFNAVADAVYDDVESEVTPFLESQGIPVLGVLPVERDLAGVTVDDLASELGATVLTEDTATTDAIVERFLVGAMSSESALSHFRRTKDAAVITGGDRADIQTAALDAPGVQCLVLTGGHRPSGAVLGKATDAGVPVLSVDADTLTTLERAEELVRDGRVRDEHTVDVMQRLLHDHADTDRLLD” reads “failed”.
Consider “MNNTGLSVKKVVAIGIGSAIYVILARFTSIPTPIPNTNIELVFPFLAFFASIYGATVGFSVGFIGHALSDFIMYGQTWWSWVLATGILGWIIGLAYKRLDLKNGIFGLKQIILFNIVQIIANILAWIVVAPIGDIIIYSEPANKVFVQGISATISNGISILIIGTILLKAYASTKIKKGSLRKED”, for which the protein production result is “failed”.
For “MAAGALPAREPGLLKPAVLWLLLLAPLFFSTYGFATWVTAQRDDVGSMVFDWERHMPFWAWTIVPYWSIDLLYGFSLLLPRSRDELKRHALRLLTAQVIAVSCFLLWPLSFTFSRPELDGVFGWLFAVLAGFDKPFNQAPSLHIALLVVLWVCYARHTQGFWRWLVHGWFALIGVSVLSTYQHHFIDVPTGALAGWLCVWLWPLDRPSPLFSARAAQDPKRRQLALRYGLGATLFAGAAFAWGGAALWLIWPAVALLLVALNYALLGAEGFQKRQDGSLSPAARWLLAPYLAAAWINSRLWTRKHPQPDPVVDNVWLGRLPTPAELKDSPFDAVLDLCAELSLDSRGLRAYQSLPVLDLCAPSAEQCLAAAHAIERLRQQGPLLVCCALGYSRSATAIAAWLLHSGRAATVDAAIVQIQRARPQIVLHPAHRQALQALSSAGRTAHVH”, the protein production result is listed as “failed”.
The result for “MPVEITVKELLEAGVHFGHERKRWNPKFARYIYAERNGIHIIDLQKTMEELERTFRFIEDLAMRGGTILFVGTKKQAQDIVRMEAERAGMPYVNQRWLGGMLTNFKTISQRVHRLEELEALFASPEIEERPKKEQVRLKHELERLQKYLSGFRLLKRLPDAIFVVDPTKEAIAVREARKLFIPVIALADTDSDPDLVDYIIPGNDDAIRSIQLILSRAVDLIIQARGGVVEPSPSYALVQEAEATETPEGESEVEA” reads “not failed”; that for “MPKNKGKGGKNRKRGKNEADDEKRELIFKEDGQEYAQVLRMLGNGRCEAMCIDGTKRLCHIRGKMHKKVWIAAGDIVLVGLRDYQDDKADVILKYMSDEARLLKAYGELPENTRLNEGIVGDLEDDDDNNDDDYVEFEDEDIDRI”, “failed”.
“MASISATLYELCEAVDHPVPTRDRDVEAVFAEIEFDAIEFCPIEFVILPIGDWLDIFGDKIVLSEPFESAVDCRLRDPGAVAELCRRARLLFRLDENRARTLVTEQVCECFRISHVGHCKRAISWFVNIGCAVLGFLSGFSQRSHKKLPSISALTFRVRMSNRQTRTPTSVLLPTVSWTAACDDVAAQLGPEDELLIIHDSKDDPVVDRKPLSENVQFIPAGDPVGCSGKANAIAAGMEAANHDRLVWTDDDFHHPPDWLDRLHKDYAEYGPTTELPAFVGQDPLAVLLEPVYVLGGTLGTYMGDHAWGGAVIFDRSALDEERFLSELRQTISDDGLLGEHISVTSVQRVRRVPMGGSLRQTLERHIRFNQIFSTHDPTVAKLSFGVLVAVLIGCVFFPLLAVVLTVLTAGVSASFGVRRASLLLTVPALVAAVPLGLYAFARDTFVWGGRRYRWHSKFDVEVLNE”: the protein production result is “failed”.
With “MEKRQDNNEIERRILKYEQYVKEHPKKAYGYYCLGRLHMMDGKYKLAEEYFKKSLAVDGNYTFSIIGLIEACVFRRKFLKAVYLFSKNRQKIIDKYIYRVKLVRGVSSFYSKSGFFRTEAKDFLSQLSLKNSIRSIKKLVDSEANNIVLKLILCMYYLNFGEKSFYIIQLFKTCIYWDGLEDSFRWALIRRLSEFGEKLYYDANIARKFATVPDASCTDEYVDLIFSSALDREKGGRMADIYRTAEKYNKNISPRLIWRYVKWSNENSFYDPSVYDCCKKLVDMGWMDSVVADTMLKFRERNAVKLGDETERALRLFGYMD”, the protein production entry is on record as “failed”.
